Changes are numbered by the printed parent chain.
T1: GST-CDC-48.3 full-length (FL), amino acids 1-724 (C. elegans, UniProt Q21222 1-724)
T1 sequence (looked up): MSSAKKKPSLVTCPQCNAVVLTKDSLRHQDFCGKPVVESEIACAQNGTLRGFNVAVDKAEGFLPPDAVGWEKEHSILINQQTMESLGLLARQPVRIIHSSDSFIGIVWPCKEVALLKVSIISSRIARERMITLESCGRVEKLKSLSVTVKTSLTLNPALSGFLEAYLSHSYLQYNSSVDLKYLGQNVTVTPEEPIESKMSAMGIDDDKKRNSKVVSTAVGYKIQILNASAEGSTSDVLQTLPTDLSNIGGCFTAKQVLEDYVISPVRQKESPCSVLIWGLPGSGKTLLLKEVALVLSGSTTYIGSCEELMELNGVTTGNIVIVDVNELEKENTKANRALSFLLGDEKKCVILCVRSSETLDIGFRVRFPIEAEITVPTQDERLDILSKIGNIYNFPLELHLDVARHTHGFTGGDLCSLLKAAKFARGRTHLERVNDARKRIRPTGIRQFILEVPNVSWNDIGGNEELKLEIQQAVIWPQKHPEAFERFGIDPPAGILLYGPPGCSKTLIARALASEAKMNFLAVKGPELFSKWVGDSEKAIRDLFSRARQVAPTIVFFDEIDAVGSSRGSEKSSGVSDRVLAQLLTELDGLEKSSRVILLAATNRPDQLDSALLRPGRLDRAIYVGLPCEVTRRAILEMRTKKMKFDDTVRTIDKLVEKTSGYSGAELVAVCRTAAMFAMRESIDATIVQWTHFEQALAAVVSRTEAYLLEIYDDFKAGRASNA

T2: GST-CDC-48.3 (N+D1), amino acids 1-441 (C. elegans, UniProt Q21222 1-441)
T2 sequence (looked up): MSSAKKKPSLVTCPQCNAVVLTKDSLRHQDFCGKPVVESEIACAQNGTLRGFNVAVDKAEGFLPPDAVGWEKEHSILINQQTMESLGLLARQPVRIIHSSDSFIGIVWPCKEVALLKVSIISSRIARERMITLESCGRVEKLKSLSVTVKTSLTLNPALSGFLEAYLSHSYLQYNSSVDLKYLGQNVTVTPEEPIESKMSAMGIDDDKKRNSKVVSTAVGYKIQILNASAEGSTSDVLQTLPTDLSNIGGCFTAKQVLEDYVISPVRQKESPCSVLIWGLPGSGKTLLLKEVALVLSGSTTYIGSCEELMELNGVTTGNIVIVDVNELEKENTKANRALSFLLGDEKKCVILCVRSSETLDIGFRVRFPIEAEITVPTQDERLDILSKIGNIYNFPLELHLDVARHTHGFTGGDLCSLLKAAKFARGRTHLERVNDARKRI

T3: GST-CDC-48.3 (N+D1) K285T (C. elegans, UniProt Q21222 1-441, K285T)
T3 sequence (looked up): T2 sequence (looked up) with K285T

B1: AIR-2 (C. elegans Aurora B kinase), recombinant, GST tag removed (enzyme, UniProt O01427 1-305, looked up)
chain: MENKPPVINLPEKETVNTPQKGGKFTINDFEIGRPLGKGKFGSVYLARTKTGHFHVAIKVLFKSQLISGGVEHQLEREIEIQSHLNHPNIIKLYTYFWDAKKIYLVLEYAPGGEMYKQLTVSKRFSEPTAAKYMYEIADALSYCHRKNVIHRDIKPENLLIGSQGELKIGDFGWSVHAPSNKRQTMCGTMDYLPPEMVNGADHSDAVDLWAIGVLCYEFLVGKPPFEHEDQSKTYAAIKAARFTYPDSVKKGARDLIGRLLVVDPKARCTLEQVKEHYWIQGMMEAKIRAEKQQKIEKEASLRNH
B2: GST-CDC-48.3 N (amino acids 1-225) (domain or fragment, C. elegans, UniProt Q21222 1-225, looked up)
chain: MSSAKKKPSLVTCPQCNAVVLTKDSLRHQDFCGKPVVESEIACAQNGTLRGFNVAVDKAEGFLPPDAVGWEKEHSILINQQTMESLGLLARQPVRIIHSSDSFIGIVWPCKEVALLKVSIISSRIARERMITLESCGRVEKLKSLSVTVKTSLTLNPALSGFLEAYLSHSYLQYNSSVDLKYLGQNVTVTPEEPIESKMSAMGIDDDKKRNSKVVSTAVGYKIQI

How the values were obtained:
Test in all cases: pull-down
[1] = target: T1, GST-CDC-48.3 full-length (FL), amino …
[2] = target: T2, GST-CDC-48.3 (N+D1), amino acids 1-441
[3] = target: T3, GST-CDC-48.3 (N+D1) K285T
[4] = target: B1

Row | binding result [1] | binding result [2] | binding result [3] | binding result [4] | Binder
1 | binds | binds | binds |  | B1
2 |  |  |  | binds | B2
